Holding throughout (details): both partners purified
Test [1] deals with T1, DLG1 PDZ2 (human DLG1 PDZ2 aa 311-407) (human, UniProt Q12959 311-407).
T1 construct: Disks large homolog 1 (DLG1), human, second PDZ domain, aa 311-407, in a modified pRSET vector (Chi et al, 2009); removal of the His tag is told only for the NMR sample of Scribble PDZ1 and for SHANK1 PDZ; also called DLG PDZ2; source: E. coli BL21 Gold (DE3), purified (Ni2+ Sepharose), dialyzed into 50 mM Tris-HCl pH 7.4
Briefly: MST; FITC-labeled peptide fixed at 25-50 nM, DLG1 PDZ2 titrated (1:1 dilution series); 50 mM Tris-HCl pH 7.4, 0.1% Tween-20; KD from thermophoresis and T-Jump signal; n = 3.

Test [2] addresses T2, SHANK1 PDZ (human, aa 652-761) (human, UniProt Q9Y566 652-761).
T2 construct: Shank1, human, PDZ, aa 652-761 in pETM-33; source: E. coli BL21 Gold (DE3), purified (Ni2+ Sepharose; tag removed with HRV3C protease)
T2 sequence (looked up): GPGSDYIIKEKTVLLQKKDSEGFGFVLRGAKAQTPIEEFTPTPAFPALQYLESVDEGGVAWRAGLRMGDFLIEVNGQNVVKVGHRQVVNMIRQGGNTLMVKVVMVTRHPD
Put plainly: MST; FITC-labelled peptide fixed at 25-50 nM, untagged SHANK1 PDZ titrated (1:1 dilution series); PBS, 10 mM MgCl2, 0.05% Tween-20; thermophoresis and T-Jump signal; triplicate.

Test [3] has as its target T3, Scribble PDZ1 (human, aa 719-829) (human, UniProt Q14160 719-829).
T3 construct: Scribble, human, PDZ1, aa 719-829 in pETM-11; The His tag was cleaved only for the NMR samples; nothing is said of cleavage for MST and ITC; also called Scribble PDZ1 wild type; source: E. coli BL21 Gold (DE3), purified (Ni2+ Sepharose)
Put plainly: MST; FITC-labelled peptide fixed at 25-50 nM, PDZ domain titrated (1:1 dilution series); 50 mM Tris-HCl pH 7.4, 0.1% Tween-20; thermophoresis and T-Jump signal; triplicate.

Test [4] concerns the target T4, DLG1 PDZ2 (human, aa 311-407) (human, UniProt Q12959 311-407).
T4 construct: DLG1, human, PDZ2, aa 311-407 in a modified pRSET vector; also called DLG PDZ2; source: E. coli BL21 Gold (DE3), purified (Ni2+ Sepharose)
The description is as above.

For test [5], the target named is T5, DLG1 PDZ2 (His-tagged, aa 311-407) (human, UniProt Q12959 311-407).
T5 construct: human DLG1, PDZ2, aa 311-407, in a modified pRSET vector; also called DLG PDZ2; source: E. coli BL21 Gold (DE3), purified (Ni2+ Sepharose), dialysed
T5 sequence (Q12959 311-407): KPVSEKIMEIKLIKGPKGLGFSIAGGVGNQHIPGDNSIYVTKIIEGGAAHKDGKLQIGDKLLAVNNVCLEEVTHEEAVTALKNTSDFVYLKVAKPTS
Put plainly: MST; FITC-labeled peptide fixed at 25-50 nM, protein (Scribble PDZ1 or DLG1 PDZ2) in a 1:1 dilution series; 50 mM Tris-HCl pH 7.4, 0.1% Tween-20; thermophoresis and T-Jump signal; n = 3.

In test [6] the target is T6, Scribble PDZ1 R762A (human, UniProt Q14160 719-829, R762A).
T6 construct: Scribble, human, PDZ1, aa 719-829 in pETM-11, with R762A; source: E. coli BL21 Gold (DE3), purified (Ni2+ Sepharose)
T6 sequence (Q14160 719-829 R762A): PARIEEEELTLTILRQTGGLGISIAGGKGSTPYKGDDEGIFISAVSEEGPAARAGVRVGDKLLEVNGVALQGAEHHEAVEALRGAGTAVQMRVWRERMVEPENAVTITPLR
Briefly: ITC; iTC200, 25°C, 20 mM HEPES pH 7.4; protein 50-100 µM in the cell, 0.64-3 mM peptide in the syringe; single-site fit, stoichiometry fixed to 0.8-1.1; triplicate. Background: In ITC the heat of successive injections is recorded.

The target in test [7] is T3, Scribble PDZ1 (human, aa 719-829). Described as above.
Test [8] has as its target T7, Scribble PDZ1 R762A/A743R (human, UniProt Q14160 719-829, A743R | R762A).
T7 construct: Scribble, human, PDZ1, aa 719-829 in pETM-11, with R762A and A743R; also called R762A/A743R mutant; source: E. coli BL21 Gold (DE3), purified (Ni2+ Sepharose)
The test is described as above.

The target in test [9] is T8, Scribble PDZ1 (His-tagged, aa 719-829) (human, UniProt Q14160 719-829).
T8 construct: human Scribble, PDZ1, aa 719-829, in pETM-11; Used for MST and ITC; removal of the His tag is told only for the NMR samples; also called Scribble PDZ1 wild type; source: E. coli BL21 Gold (DE3), purified (Ni2+ Sepharose), dialysed
T8 sequence (Q14160 719-829): as the sequence (Q14160 719-829 R762A) above, with A44R counted along it
Put plainly: ITC; iTC200, 25°C, 20 mM HEPES pH 7.4; protein 50-100 μM in the cell, peptide 0.64-3 mM in the syringe; single-site fit, stoichiometry fixed to 0.8-1.1; n = 3.

Test [10] addresses T9, Scribble PDZ1 R762A/A743R (human, UniProt Q14160 719-829, R762A | A743R).
T9 construct: human Scribble, PDZ1, aa 719-829, A743R introduced in the background of R762A; also called R762A/A743R mutant; source: E. coli BL21 Gold (DE3), purified (Ni2+ Sepharose), dialysed
Described as above.

Test [11] deals with T8, Scribble PDZ1 (His-tagged, aa 719-829). Put plainly: MST; FITC-labeled peptide fixed at 25-50 nM, protein (Scribble PDZ1 or DLG1 PDZ2) in a 1:1 dilution series; 50 mM Tris-HCl pH 7.4, 0.1% Tween-20; thermophoresis and T-Jump signal; n = 3.
The target in test [12] is T10, Scribble PDZ1 K746A (human, UniProt Q14160 719-829, K746A).
T10 construct: Scribble, human, PDZ1, aa 719-829 in pETM-11, with K746A; source: E. coli BL21 Gold (DE3), purified (Ni2+ Sepharose)
T10 sequence (Q14160 719-829 K746A): as the sequence (Q14160 719-829 R762A) above, with K28A, A44R counted along it
Put plainly: ITC; iTC200, 25°C, 20 mM HEPES pH 7.4; protein 50-100 µM in the cell, 0.64-3 mM peptide in the syringe; single-site fit, stoichiometry fixed to 0.8-1.1; triplicate.

In test [13] the target is T11, Scribble PDZ1 A743R (human, UniProt Q14160 719-829, A743R).
T11 construct: Scribble, human, PDZ1, aa 719-829 in pETM-11, with A743R; the text describes A743R only in the R762A background; source: E. coli BL21 Gold (DE3), purified (Ni2+ Sepharose)
T11 sequence (Q14160 719-829 A743R): as the sequence (Q14160 719-829 R762A) above, with A25R, A44R counted along it
Described as above.

Test [14] deals with T12, Scribble PDZ1 R801A (human, UniProt Q14160 719-829, R801A).
T12 construct: Scribble, human, PDZ1, aa 719-829 in pETM-11, with R801A (text, methods and primers); source: E. coli BL21 Gold (DE3), purified (Ni2+ Sepharose)
T12 sequence (Q14160 719-829 R801A): as the sequence (Q14160 719-829 R762A) above, with A44R, R83A counted along it
The test is described as above.

Square brackets hold non-standard residues; d marks the D form. Ends that are not written are not given here. * marks the point of attachment. FITC = O=C1OC2(c3ccc(O)cc3Oc3cc(O)ccc32)c2ccc(NC(=S)*)cc21; pS = N[C@@H](COP(=O)(O)O)C(=O)O

The term Kd denotes the constant that tells how readily two partners part at equilibrium. A high value points to weaker binding.

T7 sequence (Q14160 719-829 A743R/R762A): as the sequence (Q14160 719-829 R762A) above, with A25R counted along it
T9 sequence (Q14160 719-829 A743R/R762A): as the sequence (Q14160 719-829 R762A) above, with A25R counted along it
T3 sequence (Q14160 719-829): as the sequence (Q14160 719-829 R762A) above, with A44R counted along it
T4 sequence (Q12959 311-407): as the sequence (Q12959 311-407) above
T1 sequence (Q12959 311-407): as above

B1: FITC-RLTSTRL, unphosphorylated RPS6KA2 peptide (peptide)
peptide: {FITC}-RLTSTRL
notes: C-terminal peptide of human RPS6KA2 (RLTSTRL-coo-); also called RPS6KA2 Unphosphorylated; source: synthetic peptide (GeneCust)
For the molecule B1, the Kd in [1] is 95 µM.

B2: FITC-HTNETpSL (MCC peptide, p-1 phosphorylated) (peptide)
peptide: {FITC}-HTNET[pS]L
notes: C-terminal seven residues of MCC, human; also called pMCC; source: synthetic peptide, bought: GeneCust
On to B2, for which the figures for the Kd in test [2] and in test [3] were 47 µM and 0.6 µM, respectively.

B3: FITC-RLTpSTRL (RPS6KA2 peptide, p-3 phosphorylated) (peptide)
peptide: {FITC}-RLT[pS]TRL
notes: C-terminal seven residues of RPS6KA2, human; the methods give pS at this position; also called pRPS6KA2; source: synthetic peptide, bought: GeneCust
On to B3, for which the Kd was 16 µM in [2], 1.7 µM in test [3] and 72 µM in test [4].

B4: FITC-HTNETSL (MCC peptide, unphosphorylated) (peptide)
peptide: {FITC}-HTNETSL
notes: C-terminal peptide of human MCC (colorectal mutant cancer protein); also called wild-type MCC peptide; source: synthetic peptide, bought: GeneCust
As to B4, the affinity in [5], expressed as Kd, was 6.4 µM.

B5: MCC peptide RPHTNETSL (unphosphorylated) (peptide)
peptide: RPHTNETSL
notes: C-terminal nine residues of MCC (colorectal mutant cancer protein), human; source: synthetic peptide, bought: GeneCust
Consider B5, for which the values for the Kd in test [6], in test [7] and in test [8] were 11.3 µM, 4.4 µM and 5.8 µM, respectively.

B6: RPHTNETpSL (MCC peptide, phosphorylated at p-1, unlabelled) (peptide)
peptide: RPHTNET[pS]L
notes: C-terminal peptide of human MCC; also called phosphorylated MCC; source: synthetic peptide, bought: GeneCust
With B6, in test [9], the “fold lower KD than for the unphosphorylated peptide” value stood at 2 fold. In test [10], the binding result was “binds”.

B7: FITC-HTNETSL (MCC peptide, unphosphorylated) (peptide)
peptide: {FITC}-HTNETSL
notes: C-terminal seven residues of MCC, human; source: synthetic peptide, bought: GeneCust
Turning to B7, the Kd was found to be 15 µM in test [2] and 1.8 µM in test [3].

B8: FITC-KRpSFIESNV (TANC1 peptide, p-6 phosphorylated) (peptide)
peptide: {FITC}-KR[pS]FIESNV
notes: C-terminal nine residues of TANC1, human; also called pTANC1; source: synthetic peptide, bought: GeneCust
As for B8, the results for the Kd in [3] and in test [4] were 101 µM and 6.1 µM, respectively.

B9: FITC-labeled RPS6KA1 peptide, unphosphorylated (VRKLPSTTL) (peptide)
peptide: VRKLPSTTL
modifications: also: FITC label, position not given here
notes: C-terminal tail of human RPS6KA1; also called unphosphorylated RPS6KA1 peptide; source: synthetic peptide (FITC-labeled)
In the case of B9, the Kd in test [11] is 1 µM.

B10: RPHTNETSL (MCC peptide, unphosphorylated, unlabelled) (peptide)
peptide: RPHTNETSL
notes: C-terminal peptide of human MCC; also called unphosphorylated MCC; source: synthetic peptide, bought: GeneCust
In the case of B10, in [10], the binding result is listed as “binds”.

B11: RPS6KA2 peptide MKRLTSTRL (unphosphorylated) (peptide)
peptide: MKRLTSTRL
notes: C-terminal nine residues of RPS6KA2, human; source: synthetic peptide, bought: GeneCust
Consider B11, for which the Kd came to 9.7 µM in [6]; 10 µM in test [12]; 18 µM in test [7]; 15 µM in test [13]; 28 µM in test [14]; 60 µM in test [8].

B12: FITC-KRpSFIESNV, p-6 phosphorylated TANC1 peptide (peptide)
peptide: {FITC}-KR[pS]FIESNV
notes: also called TANC1 Phosphorylated; source: synthetic peptide (GeneCust)
In turn, B12 yielded a Kd in [1] of 6.1 µM.

B13: FITC-KRSFIESNV, unphosphorylated TANC1 peptide (peptide)
peptide: {FITC}-KRSFIESNV
notes: also called TANC1 Unphosphorylated; source: synthetic peptide (GeneCust)
Molecule B13 gave a Kd in test [1] of 2.7 µM.

B14: FITC-RLTpSTRL, p-3 phosphorylated RPS6KA2 peptide (peptide)
peptide: {FITC}-RLT[pS]TRL
notes: also called RPS6KA2 Phosphorylated; source: synthetic peptide (GeneCust)
B14 had a Kd in test [1] of 72 µM.

B15: FITC-KREFIESNV (TANC1 peptide, phosphomimetic at p-6) (peptide)
peptide: {FITC}-KREFIESNV
notes: also called Mimetic TANC1; source: synthetic peptide, bought: GeneCust
For B15, the Kd in test [3] amounted to 52 µM; in [4], 5.1 µM.

B16: MCC peptide RPHTNETpSL (p-1 phosphorylated) (peptide)
peptide: RPHTNET[pS]L
notes: C-terminal nine residues of MCC (colorectal mutant cancer protein), human; also called pMCC; source: synthetic peptide, bought: GeneCust
For the molecule B16, the values for the Kd in [6], in test [7] and in [8] were 25 µM, 2.6 µM and 14 µM, respectively.

B17: FITC-KRSFIESNV (TANC1 peptide, unphosphorylated) (peptide)
peptide: {FITC}-KRSFIESNV
notes: C-terminal nine residues of TANC1, human; source: synthetic peptide, bought: GeneCust
With B17, the figures for the Kd in test [3] and in test [4] were 42 µM and 2.7 µM, respectively.

B18: FITC-RLTETRL (RPS6KA2 peptide, phosphomimetic at p-3) (peptide)
peptide: {FITC}-RLTETRL
notes: C-terminal seven residues of RPS6KA2, human, with S730E; also called Mimetic RPS6KA2; source: synthetic peptide, bought: GeneCust
In the case of B18, the results for the Kd in test [2], in test [3] and in test [4] were 62 µM, 0.7 µM and 14 µM, respectively.

B19: FITC-RLTETRL, phosphomimetic (p-3) RPS6KA2 peptide (peptide)
peptide: {FITC}-RLTETRL
notes: also called RPS6KA2 Mimetic; source: synthetic peptide (GeneCust)
With B19, the Kd in [1] is 14 µM.

B20: FITC-labeled RPS6KA1 peptide, p-3 phosphorylated (VRKLPpSTTL) (peptide)
peptide: VRKLP[pS]TTL
modifications: also: FITC label, position not given here
notes: C-terminal tail of human RPS6KA1; also called phosphorylated RPS6KA1; source: synthetic peptide (FITC-labeled)
In the case of B20, in test [11], the Kd was found to be 0.39 µM.

B21: FITC-HTNETpSL (MCC peptide, phosphorylated at p-1) (peptide)
peptide: {FITC}-HTNET[pS]L
notes: C-terminal peptide of human MCC; also called pMCC; source: synthetic peptide, bought: GeneCust
B21 yielded a Kd in test [5] of 57 µM.

B22: MKRLTSTRL (RPS6KA2 peptide, unphosphorylated, unlabelled) (peptide)
peptide: MKRLTSTRL
notes: C-terminal peptide of human RPS6KA2; also called unphosphorylated RPS6KA2; unphosphorylated ligand; source: synthetic peptide, bought: GeneCust
As for B22, in [10], the binding result is on record as “binds”.

B23: FITC-HTNETEL (MCC peptide, phosphomimetic at p-1) (peptide)
peptide: {FITC}-HTNETEL
notes: also called Mimetic MCC; source: synthetic peptide, bought: GeneCust
Take B23: the Kd came out at 52 µM in test [2], 1.1 µM in test [3] and 21 µM in test [4].

B24: FITC-RLTSTRL (RPS6KA2 peptide, unphosphorylated) (peptide)
peptide: {FITC}-RLTSTRL
notes: C-terminal seven residues of RPS6KA2, human; source: synthetic peptide, bought: GeneCust
Take B24: the figures for the Kd in test [2], in [3] and in test [4] were 4.5 µM, 8.9 µM and 95 µM, respectively.
